What all share (assay): pull-down
Test [1] has as its target His-ImuB-L378A+V383A (M. smegmatis) (M. smegmatis).
The target in test [2] is His-ImuB-V383A (M. smegmatis) (M. smegmatis).
In test [3] the target is His-ImuB-L378A (M. smegmatis) (M. smegmatis).

For the substance “Strep-VFP-tagged ImuA’ (M. smegmatis) (natural protein)”, the fold less pulled down than by His-ImuB in test [1] stood at 3 fold; in test [2], 1.5 fold; in test [3], 1.5 fold.

The record behind these values is publication doi:10.1101/2023.03.28.534377.
